The target of this assay is CD19 on KILR Raji cells (UniProt P15391). The experiment in a line: cell-based or functional assay.
CD19 on KILR Raji cells, sequence (P15391 20-556 limits assumed): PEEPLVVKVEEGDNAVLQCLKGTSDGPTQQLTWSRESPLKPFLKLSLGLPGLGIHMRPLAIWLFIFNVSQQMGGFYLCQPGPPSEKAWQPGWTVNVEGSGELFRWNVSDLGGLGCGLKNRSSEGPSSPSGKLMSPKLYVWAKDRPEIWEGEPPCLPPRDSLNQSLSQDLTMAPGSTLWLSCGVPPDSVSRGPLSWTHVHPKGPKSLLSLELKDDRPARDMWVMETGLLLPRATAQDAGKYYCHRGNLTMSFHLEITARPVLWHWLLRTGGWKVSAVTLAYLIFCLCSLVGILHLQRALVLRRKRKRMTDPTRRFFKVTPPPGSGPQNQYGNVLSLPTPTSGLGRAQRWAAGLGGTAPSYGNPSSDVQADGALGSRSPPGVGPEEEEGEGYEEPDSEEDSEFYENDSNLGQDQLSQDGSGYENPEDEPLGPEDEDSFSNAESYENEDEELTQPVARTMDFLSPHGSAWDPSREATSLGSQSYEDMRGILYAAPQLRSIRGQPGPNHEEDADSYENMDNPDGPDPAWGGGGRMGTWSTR

Consider blinatumomab (bispecific antibody), for which the EC50 of T cell-redirected killing of KILR Raji cells, +HSA (15 mg/mL) came to 10.8 ng/mL and the EC50 of T cell-redirected killing of KILR Raji cells, -HSA was 2850 pg/mL.

The values above are taken from patent publication US20230032087A1.
